Data published in article PMC12170943.

Test system: OmpRAc (phosphorylated by EnvZAcC) (Acidovorax citrulli xjL12 (group II))
Assay: MST
Conditions: EMSA: 10 mM Tris-HCl pH 7.4, 50 mM KCl, 50 mM MgCl2, 5% glycerol, room temperature 20 min, 50 ng probe in 20 uL, MST: 50 mM Tris-HCl pH 7.4, 150 mM NaCl

Work on PhrpG Cy5 probe (MST) yielded a Kd of 5.72 µM.
